Data taken from paper PMC7706699 (Genes & Development, 2020).
Values belong to the binder of their own block, whether it stands above or below them. Ends that are not written are not given here. * marks the point of attachment. Fluorescein(5-Mal) = O=C1OC2(c3ccc(O)cc3Oc3cc(O)ccc32)c2ccc(N3C(=O)CC(*)C3=O)cc21

Legend:
[1] = target: T1, human CPSF30 (residues 62–244) Y151A mutant (human, UniProt O95639-2 62-244, Y151A); assay: fluorescence polarisation
[2] = target: T2, human CPSF30 ZF2–C terminus (residues 62–244), wild type (human, UniProt O95639-2 62-244); assay: fluorescence polarisation
[3] = target: T3, human CPSF30 (residues 62–244) Y127A mutant (human, UniProt O95639-2 62-244, Y127A); assay: fluorescence polarisation
[4] = target: human CPSF30 full-length (residues 1–244) Y127A mutant (human, UniProt O95639-2 1-244, Y127A); assay: SEC
[5] = target: human CPSF30 full-length (residues 1–244) Y151A mutant (human, UniProt O95639-2 1-244, Y151A); assay: SEC
[6] = target: CPSF30 (full-length, Y151A)–hFip1 (residues 79–200) complex (human, UniProt O95639-2 1-244; Q6UN15 79-200, Y151A); assay: SEC
[7] = target: CPSF30 (full-length, wild type)–hFip1 (residues 79–200) complex (human, UniProt O95639-2 1-244; Q6UN15 79-200); assay: SEC
[8] = target: CPSF30 (full-length, Y127A)–hFip1 (residues 79–200) complex (human, UniProt O95639-2 1-244; Q6UN15 79-200, Y127A); assay: SEC
[9] = target: human CPSF30 ZF4–ZF5 (residues 114–173) (human, UniProt O95639-2 114-173); assay: crystal structure
[10] = target: T1, human CPSF30 (residues 62–244) Y151A …; assay: SEC
[11] = target: T2, human CPSF30 ZF2–C terminus (residues …); assay: SEC
[12] = target: T3, human CPSF30 (residues 62–244) Y127A …; assay: SEC

Kd [1]: 1.8 ± 0.4 nM
Kd [2]: 0.69 ± 0.31 nM
Kd [3]: 220 ± 32 nM
Binder: C(Fluorescein(5-Mal))FEDKPWRKPGADLSDYFNYGFNEDTWKAYSEKQKRIRMGLE (domain or fragment, human, UniProt Q6UN15 159-200, looked up) [hFip1 (residues 159–200) S159C/C189S mutant, FAM-labeled]

stoichiometry N [4]: 1 hFip1 per CPSF30
stoichiometry N [5]: 1 hFip1 per CPSF30
B1: hFip1 (residues 79–200) (domain or fragment, human, UniProt Q6UN15 79-200, looked up)
chain: TETEDDSDSDSDDDEDDVHVTIGDIKTGAPQYGSYGTAPVNLNIKTGGRVYGTTGTKVKGVDLDAPGSINGVPLLEVDLDSFEDKPWRKPGADLSDYFNYGFNEDTWKAYCEKQKRIRMGLE

stoichiometry N [6]: 1 PAP per CPSF30–hFip1 complex
stoichiometry N [7]: 2 PAP per CPSF30–hFip1 complex
stoichiometry N [8]: 1 PAP per CPSF30–hFip1 complex
B2: catalytic module of human poly(A) polymerase α (residues 1–524) (domain or fragment, UniProt P51003 1-524, looked up)
chain: MPFPVTTQGSQQTQPPQKHYGITSPISLAAPKETDCVLTQKLIETLKPFGVFEEEEELQRRILILGKLNNLVKEWIREISESKNLPQSVIENVGGKIFTFGSYRLGVHTKGADIDALCVAPRHVDRSDFFTSFYDKLKLQEEVKDLRAVEEAFVPVIKLCFDGIEIDILFARLALQTIPEDLDLRDDSLLKNLDIRCIRSLNGCRVTDEILHLVPNIDNFRLTLRAIKLWAKRHNIYSNILGFLGGVSWAMLVARTCQLYPNAIASTLVHKFFLVFSKWEWPNPVLLKQPEECNLNLPVWDPRVNPSDRYHLMPIITPAYPQQNSTYNVSVSTRMVMVEEFKQGLAITDEILLSKAEWSKLFEAPNFFQKYKHYIVLLASAPTEKQRLEWVGLVESKIRILVGSLEKNEFITLAHVNPQSFPAPKENPDKEEFRTMWVIGLVFKKTENSENLSVDLTYDIQSFTDTVYRQAINSKMFEVDMKIAAMHVKRKQLHQLLPNHVLQKKKKHSTEGVKLTALNDSSLD

stoichiometry N [9]: 2 hFip1 per CPSF30
stoichiometry N [10]: 1 hFip1 per CPSF30
stoichiometry N [11]: 2 hFip1 per CPSF30
stoichiometry N [12]: 1 hFip1 per CPSF30
Binder: SFEDKPWRKPGADLSDYFNYGFNEDTWKAYCEKQKRIRMGLE (domain or fragment, human, UniProt Q6UN15 159-200, looked up) [hFip1 (residues 159–200)]
